Results as given in US20060233708A1.
“And” between values parts separate entries of the source, which are not always exact repeats. Identical values can stand only once. Blank lines part the entries; values can stand above or below the molecule they belong to. Ends that are not written are not given here.

Tests used:
[1] = target: TGF-β receptors in mink lung epithelial cells
[2] = target: TGF-β receptors in mink lung epithelial cells; experiment: competition with 125I-TGF-β1 for binding to mink lung epithelial cells
[3] = target: TGF-β receptors in mink lung epithelial cells; experiment: specific binding of 125I-TGF-β1 to mink lung epithelial cells without peptide
[4] = target: TGF-β receptors in mink lung epithelial cells; experiment: specific binding of 0.1 nM 125I-TGF-β1 to mink lung epithelial cells
[5] = target: TGF-β receptors in mink lung epithelial cells; experiment: competition with 125I-TGF-β1 for binding to mink lung epithelial cells; remark: listed apart in the source
[6] = target: type I TGF-β receptor (mink); experiment: inhibition of 125I-TGF-β1 affinity labeling of receptors on mink lung epithelial cells
[7] = target: type III TGF-β receptor (mink); experiment: as above
[8] = target: type V TGF-β receptor (mink); experiment: as above
[9] = target: type II TGF-β receptor (mink); experiment: as above
[10] = target: TGF-β receptors in mink lung epithelial cells; experiment: competition with 125I-TGF-β2 for binding to mink lung epithelial cells
[11] = target: TGF-β receptors in mink lung epithelial cells; experiment: competition with 125I-TGF-β3 for binding to mink lung epithelial cells
[12] = target: TGF-β receptors in mink lung epithelial cells; experiment: specific binding of 125I-TGF-β3 to mink lung epithelial cells without peptide
[13] = target: TGF-β receptors in mink lung epithelial cells; experiment: specific binding of 125I-TGF-β2 to mink lung epithelial cells without peptide

Molecule: TGF-β1 (ligand)
specific binding (0% inhibition) [3]: 3930 cpm/well | specific binding without peptides [4]: 3670 cpm/well

Molecule: peptide β1^25 (41-65)-bovine serum albumin (BSA) conjugate (from UniProt P02769)
ED50 of growth inhibition as measured by DNA synthesis in mink lung epithelial cells [1]: 100 nM | IC50 [2]: 60 nM | fold lower IC50 than peptide β1^25 (41-65) prior to conjugation [2]: 20 fold

Molecule: PYIWSLDTQY [peptide β1^10 (49-58)]
IC50 [5]: 40000 to 70000 nM

Molecule: ANFCLGPCPYIWSLDTQYSKVLALY (not fully specified; cysteine pairing not given here) [peptide β1^25 (41-65)]
percent inhibition of ^125I-TGF-β1-affinity labeling at 2.3 µM [6]: 30 to 40% | percent inhibition of ^125I-TGF-β1-affinity labeling at 2.3 µM [7]: 30 to 40% | concentration at which ^125I-TGF-β1-affinity labeling was almost completely abolished [8]: 2.3 µM | percent inhibition of ^125I-TGF-β1-affinity labeling at 2.3 µM [9]: 30 to 40% | IC50 [10]: 1000 nM and 2000 nM | IC50 [11]: 60 to 80 nM | IC50 [5]: 1000 nM and 2000 nM | concentration of complete inhibition of ^125I-TGF-β1 binding [5]: 34 µM

B1: TGF-β3 (ligand)
chain: ALDTNYCFRNLEENCCVRPLYIDFRQDLGWKWVHEPKGYYANFCSGPCPYLRSADTTHSTVLGLYNTLNPEASASPCCVPQDLEPLTILYYVGRTPKVEQLSNMVVKSCKCS
modifications: ^125I-labelled (iodination with Na^125I)
specific binding (0% inhibition) [12]: 4220 cpm/well

B2: TGF-β2 (ligand)
chain: ALDAAYCFRNVQDNCCLRPLYIDFKRDLGWKWIHEPKGYNANFCAGACPYLWSSDTQHSRVLSLYNTINPEASASPCCVSQDLEPLTILYYIGKTPKIEQLSNMIVKSCKCS
modifications: ^125I-labelled (iodination with Na^125I)
specific binding (0% inhibition) [13]: 4510 cpm/well

Results, then the molecule that gave them:

ED50 of growth inhibition as measured by DNA synthesis in mink lung epithelial cells [1]: 100 nM | IC50 [2]: 50 nM | fold lower IC50 than peptide β1^25 (41-65) prior to conjugation [2]: 20 fold
Molecule: peptide β1^25 (41-65)-carbonic anhydrase (CA) conjugate (from UniProt P00915)

IC50 [5]: 40000 to 70000 nM
Molecule: PYLWSSDTQH [peptide β2^10 (49-58)]

IC50 [10]: 20000 nM | IC50 [11]: 60 to 80 nM | IC50 [5]: 20000 nM
Molecule: ANFCSGPCPYLRSADTTHSTVLGLY (not fully specified; cysteine pairing not given here) [peptide β3^25 (41-65)]

IC50 [5]: 40000 nM
Molecule: PYLWASDTQH [peptide β2^10 (49-58) S53A]

IC50 [10]: 1000 nM and 2000 nM | IC50 [11]: 80 nM | IC50 [5]: 1000 nM and 2000 nM
Molecule: ANFCAGACPYLWSSDTQHSRVLSLY (not fully specified; cysteine pairing not given here) [peptide β2^25 (41-65)]
